Source: patent US20240270846A1 (published 2024)
Residue numbers refer to the chain shown, from its start. Names and notes keep the numbering of the source.

B1: CE115HA000/GLS3000 H34P one-arm antibody (antibody, human IgG1, kappa, L234A L235A, N297A, name in Kabat numbering)
heavy: QVQLVESGGGVVQPGRSLRLSCAASGFTFSNAWMHWVRQAPGKGLEWVAQIKAKSNNYATYYAESVKGRFTISRDDSKNSLYLQMNSLKTEDTAVYYCRYVHYGAYYGVDAWGQGTTVTVSSASTKGPSVFPLAPSSKSTSGGTAALGCLVKDYFPEPVTVSWNSGALTSGVHTFPAVLQSSGLYSLSSVVTVPSSSLGTQTYICNVNHKPSNTKVDKKVEPKSCDKTHTCPPCPAPEAAGGPSVFLFPPKPKDTLMISRTPEVTCVVVDVSHEDPEVKFNWYVDGVEVHNAKTKPREEQYASTYRVVSVLTVLHQDWLNGKEYKCKVSNKALPAPIEKTISKAKGQPREPQVYTLPPSRCELTKNQVSLSCAVKGFYPSDIAVEWESNGQPENNYKTTPPVLDSDGSFFLVSKLTVDKSRWQQGNVFSCSVMHEALHNHYTQKSLSLSPDYKDDDDK
chain: EPKSSDKTHTCPPCPAPELLGGPSVFLFPPKPKDTLMISRTPEVTCVVVDVSHEDPEVKFNWYVDGVEVHNAKTKPREEQYNSTYRVVSVLTVLHQDWLNGKEYKCKVSNKALPAPIEKTISKAKGQPREPQVCTLPPSRDELTKNQVSLWCLVKGFYPSDIAVEWESNGQPENNYKTTPPVLDSDGSFFLYSKLTVDKSRWQQGNVFSCSVMHEALHNRYTQKSLSLSP
light: DIVMTQSPLSLPVTPGEPASISCRSSQSLVHSNRNTYLPWYQQKPGQAPRLLIYKVSNRFSGVPDRFSGSGSGTDFTLKISRVEAEDVGVYYCGQGTQVPYTFGQGTKLEIKRTVAAPSVFIFPPSDEQLKSGTASVVCLLNNFYPREAKVQWKVDNALQSGNSQESVTEQDSKDSTYSLSSTLTLSKADYEKHKVYACEVTHQGLSSPVTKSFNRGEC
notes: one-arm IgG1
B2: CE115HA000/GLS3000 K50P one-arm antibody (antibody, human IgG1, kappa, L234A L235A, N297A, name in Kabat numbering)
heavy: B1 heavy
chain: B1 chain
light: B1 light with P39H, K55P
notes: one-arm IgG1
B3: CE115HA000/GLS3000 N53L one-arm antibody (antibody, human IgG1, kappa, L234A L235A, N297A, name in Kabat numbering)
heavy: B1 heavy
chain: B1 chain
light: B1 light with P39H, N58L
notes: one-arm IgG1
B4: CE115HA000/GLS3000 N53K one-arm antibody (antibody, human IgG1, kappa, L234A L235A, N297A, name in Kabat numbering)
heavy: B1 heavy
chain: B1 chain
light: B1 light with P39H, N58K
notes: one-arm IgG1
B5: CE115HA000/GLS3000 N53F one-arm antibody (antibody, human IgG1, kappa, L234A L235A, N297A, name in Kabat numbering)
heavy: B1 heavy
chain: B1 chain
light: B1 light with P39H, N58F
notes: one-arm IgG1
B6: CE115HA000/GLS3000 K50E one-arm antibody (antibody, human IgG1, kappa, L234A L235A, N297A, name in Kabat numbering)
heavy: B1 heavy
chain: B1 chain
light: B1 light with P39H, K55E
notes: one-arm IgG1
B7: CE115HA000/GLS3000 K50Q one-arm antibody (antibody, human IgG1, kappa, L234A L235A, N297A, name in Kabat numbering)
heavy: B1 heavy
chain: B1 chain
light: B1 light with P39H, K55Q
notes: one-arm IgG1
B8: CE115HA000/GLS3000 N53M one-arm antibody (antibody, human IgG1, kappa, L234A L235A, N297A, name in Kabat numbering)
heavy: B1 heavy
chain: B1 chain
light: B1 light with P39H, N58M
notes: one-arm IgG1
B9: CE115HA000/GLS3000 N53I one-arm antibody (antibody, human IgG1, kappa, L234A L235A, N297A, name in Kabat numbering)
heavy: B1 heavy
chain: B1 chain
light: B1 light with P39H, N58I
notes: one-arm IgG1
B10: CE115HA000/GLS3000 L33M one-arm antibody (antibody, human IgG1, kappa, L234A L235A, N297A, name in Kabat numbering)
heavy: B1 heavy
chain: B1 chain
light: B1 light with L38M, P39H
notes: one-arm IgG1
B11: CE115HA000/GLS3000 N53H one-arm antibody (antibody, human IgG1, kappa, L234A L235A, N297A, name in Kabat numbering)
heavy: B1 heavy
chain: B1 chain
light: B1 light with P39H, N58H
notes: one-arm IgG1
B12: CE115HA000/GLS3000 H34Q one-arm antibody (antibody, human IgG1, kappa, L234A L235A, N297A, name in Kabat numbering)
heavy: B1 heavy
chain: B1 chain
light: B1 light with P39Q
notes: one-arm IgG1
B13: CE115HA000/GLS3000 H34W one-arm antibody (antibody, human IgG1, kappa, L234A L235A, N297A, name in Kabat numbering)
heavy: B1 heavy
chain: B1 chain
light: B1 light with P39W
notes: one-arm IgG1
B14: CE115HA000/GLS3000 K107E one-arm antibody (antibody, human IgG1, kappa, L234A L235A, N297A, name in Kabat numbering)
heavy: B1 heavy
chain: B1 chain
light: B1 light with P39H, K112E
notes: one-arm IgG1
B15: CE115HA000/GLS3000 L33I one-arm antibody (antibody, human IgG1, kappa, L234A L235A, N297A, name in Kabat numbering)
heavy: B1 heavy
chain: B1 chain
light: B1 light with L38I, P39H
notes: one-arm IgG1
B16: CE115HA000/GLS3000 L33E one-arm antibody (antibody, human IgG1, kappa, L234A L235A, N297A, name in Kabat numbering)
heavy: B1 heavy
chain: B1 chain
light: B1 light with L38E, P39H
notes: one-arm IgG1
B17: CE115HA000/GLS3000 K50D one-arm antibody (antibody, human IgG1, kappa, L234A L235A, N297A, name in Kabat numbering)
heavy: B1 heavy
chain: B1 chain
light: B1 light with P39H, K55D
notes: one-arm IgG1
B18: CE115HA000/GLS3000 L33P one-arm antibody (antibody, human IgG1, kappa, L234A L235A, N297A, name in Kabat numbering)
heavy: B1 heavy
chain: B1 chain
light: B1 light with L38P, P39H
notes: one-arm IgG1
B19: CE115HA000/GLS3000 K50L one-arm antibody (antibody, human IgG1, kappa, L234A L235A, N297A, name in Kabat numbering)
heavy: B1 heavy
chain: B1 chain
light: B1 light with P39H, K55L
notes: one-arm IgG1
B20: CE115HA000/GLS3000 H34T one-arm antibody (antibody, human IgG1, kappa, L234A L235A, N297A, name in Kabat numbering)
heavy: B1 heavy
chain: B1 chain
light: B1 light with P39T
notes: one-arm IgG1
B21: CE115HA000/GLS3000 K50G one-arm antibody (antibody, human IgG1, kappa, L234A L235A, N297A, name in Kabat numbering)
heavy: B1 heavy
chain: B1 chain
light: B1 light with P39H, K55G
notes: one-arm IgG1
B22: CE115HA000/GLS3000 N53E one-arm antibody (antibody, human IgG1, kappa, L234A L235A, N297A, name in Kabat numbering)
heavy: B1 heavy
chain: B1 chain
light: B1 light with P39H, N58E
notes: one-arm IgG1
B23: CE115HA000/GLS3000 H34V one-arm antibody (antibody, human IgG1, kappa, L234A L235A, N297A, name in Kabat numbering)
heavy: B1 heavy
chain: B1 chain
light: B1 light with P39V
notes: one-arm IgG1
B24: CE115HA000/GLS3000 H34S one-arm antibody (antibody, human IgG1, kappa, L234A L235A, N297A, name in Kabat numbering)
heavy: B1 heavy
chain: B1 chain
light: B1 light with P39S
notes: one-arm IgG1
B25: CE115HA000/GLS3000 K50S one-arm antibody (antibody, human IgG1, kappa, L234A L235A, N297A, name in Kabat numbering)
heavy: B1 heavy
chain: B1 chain
light: B1 light with P39H, K55S
notes: one-arm IgG1
B26: CE115HA000/GLS3000 K50T one-arm antibody (antibody, human IgG1, kappa, L234A L235A, N297A, name in Kabat numbering)
heavy: B1 heavy
chain: B1 chain
light: B1 light with P39H, K55T
notes: one-arm IgG1
B27: CE115HA000/GLS3000 K50R one-arm antibody (antibody, human IgG1, kappa, L234A L235A, N297A, name in Kabat numbering)
heavy: B1 heavy
chain: B1 chain
light: B1 light with P39H, K55R
notes: one-arm IgG1
B28: CE115HA000/GLS3000 L33V one-arm antibody (antibody, human IgG1, kappa, L234A L235A, N297A, name in Kabat numbering)
heavy: B1 heavy
chain: B1 chain
light: B1 light with L38V, P39H
notes: one-arm IgG1
B29: CE115HA000/GLS3000 H34Y one-arm antibody (antibody, human IgG1, kappa, L234A L235A, N297A, name in Kabat numbering)
heavy: B1 heavy
chain: B1 chain
light: B1 light with P39Y
notes: one-arm IgG1
B30: CE115HA000/GLS3000 N53Q one-arm antibody (antibody, human IgG1, kappa, L234A L235A, N297A, name in Kabat numbering)
heavy: B1 heavy
chain: B1 chain
light: B1 light with P39H, N58Q
notes: one-arm IgG1
B31: CE115HA000/GLS3000 N53P one-arm antibody (antibody, human IgG1, kappa, L234A L235A, N297A, name in Kabat numbering)
heavy: B1 heavy
chain: B1 chain
light: B1 light with P39H, N58P
notes: one-arm IgG1
B32: CE115HA000/GLS3000 K50Y one-arm antibody (antibody, human IgG1, kappa, L234A L235A, N297A, name in Kabat numbering)
heavy: B1 heavy
chain: B1 chain
light: B1 light with P39H, K55Y
notes: one-arm IgG1
B33: CE115HA000/GLS3000 L33F one-arm antibody (antibody, human IgG1, kappa, L234A L235A, N297A, name in Kabat numbering)
heavy: B1 heavy
chain: B1 chain
light: B1 light with L38F, P39H
notes: one-arm IgG1
B34: CE115HA000/GLS3000 L33D one-arm antibody (antibody, human IgG1, kappa, L234A L235A, N297A, name in Kabat numbering)
heavy: B1 heavy
chain: B1 chain
light: B1 light with L38D, P39H
notes: one-arm IgG1
B35: CE115HA000/GLS3000 N53G one-arm antibody (antibody, human IgG1, kappa, L234A L235A, N297A, name in Kabat numbering)
heavy: B1 heavy
chain: B1 chain
light: B1 light with P39H, N58G
notes: one-arm IgG1

The binders below were run against T1, CD3 epsilon homodimer protein (UniProt P07766 23-126) (assay: SPR (Biacore T200), CD3e homodimer on CM4 chip, antibody as analyte; KD ratio vs unaltered GLS3000;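 also: CD3 epsilon homodimer amine-coupled to the sensor surface, antibodies injected as analyte at 25 °C with HBS-EP+ running buffer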).
T1 construct: also called CD3 (CD3 epsilon)
T1 sequence (P07766 23-126): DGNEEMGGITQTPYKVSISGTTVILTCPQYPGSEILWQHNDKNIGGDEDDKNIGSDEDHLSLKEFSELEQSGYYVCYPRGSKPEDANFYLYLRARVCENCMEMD
Procedure: An appropriate amount of CD3 epsilon homodimer protein was immobilized onto Sensor chip CM4 (GE Healthcare Japan Corp.) by the amine coupling method. Then, the antibody having an appropriate concentration was injected thereto as an analyte and allowed to interact with the CD3 epsilon homodimer protein on the sensor chip. Then, the sensor chip was regenerated by the injection of 10 mmol/L glycine-HCl (pH 1.5). The assay was conducted at 25 degrees C., and HBS-EP+(GE Healthcare Japan Corp.) was used as a running buffer. […] Each parameter was calculated using Biacore T200 Evaluation Software (GE Healthcare Japan Corp.).
Specifically, when the amount of the GLS3000-containing antibody bound was defined as X and the amount of the L chain one-amino acid altered form bound was defined as Y, a value of Z (ratio of amounts bound)=Y/X was used.

Binder | KD ratio to GLS3000 [ratio]
B1 | 1.22
B2 | 27.7
B3 | 1.62
B4 | 1.05
B5 | 0.96
B6 | 57.2
B7 | 8.13
B8 | 1.21
B9 | 2.69
B10 | 0.9
B11 | 1.31
B12 | 4.6
B13 | 8.45
B14 | 0.95
B15 | 0.86
B16 | 0.83
B17 | 114
B18 | 32.7

Binder | KD ratio to GLS3000 [ratio]
B19 | 36.4
B20 | 1.1
B21 | 42.4
B22 | 2.47
B23 | 1.04
B24 | 1.24
B25 | 45.3
B26 | 25.1
B27 | 1.83
B28 | 1.26
B29 | 2.44
B30 | 1.28
B31 | 0.98
B32 | 195
B33 | 0.65
B34 | 37.5
B35 | 1.33
